This is an account of results in paper PMC8348221, “Characterization of the Intramolecular Interactions and Regulatory Mechanisms of the Scaffold Protein Tks4” (International Journal of Molecular Sciences, 2021).

Residue numbers refer to the chain shown, from its start. Names may count otherwise. Where no end group is shown, it is not given here.

Holding throughout (conditions): both partners purified
In assay [1] the target is T1, Tks4 PX–SH3_(1) fragment (residues 1–210) (human, UniProt A1X283 1-210).
T1 construct: human Tks4 (SH3PXD2B), residues 1-210: PX and SH3_(1) domains; The vector has a TEV site after the His-tag; source: E. coli Rosetta pLysS, purified
T1 sequence (looked up): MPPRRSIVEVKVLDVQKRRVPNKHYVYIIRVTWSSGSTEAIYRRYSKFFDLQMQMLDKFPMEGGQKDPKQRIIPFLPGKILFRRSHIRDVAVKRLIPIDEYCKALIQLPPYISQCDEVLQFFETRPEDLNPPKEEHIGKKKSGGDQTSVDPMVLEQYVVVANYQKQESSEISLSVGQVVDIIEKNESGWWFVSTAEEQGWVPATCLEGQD
Nature of the assay: MST; NT-647-labelled SH3_(3) constant at 20 nM, titrated with PX–SH3_(1) (16-step 2:3 dilutions from 412 µM) or, as a control, with SH3_(1); PBS, 0.5 mM TCEP, 0.05% TWEEN 20; room temperature.

Assay [2] concerns the target T2, Tks4 SH3_(1)–SH3_(2) tandem SH3 fragment (residues 155–279) (human, UniProt A1X283 155-279, NT-647 amine-reactive dye (in the MST only)).
T2 construct: human Tks4 (SH3PXD2B), residues 155-279: first and second SH3 domains with their linker; The vector has a TEV site after the His-tag; Unlabelled in the tryptophan fluorescence titrations; source: E. coli Rosetta pLysS, purified
T2 sequence (looked up): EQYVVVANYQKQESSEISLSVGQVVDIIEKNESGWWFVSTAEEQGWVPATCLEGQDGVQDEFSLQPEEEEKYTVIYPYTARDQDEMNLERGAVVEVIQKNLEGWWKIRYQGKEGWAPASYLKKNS
Nature of the assay: MST; NT-647-labelled SH3_(1)–SH3_(2) constant at 20 nM, titrated with PRRL (16-step 2:3 dilutions from 166 µM); PBS, 0.5 mM TCEP, 0.05% TWEEN 20; room temperature; standard Kd fit model.

Assay [3] deals with T2, Tks4 SH3_(1)–SH3_(2) tandem SH3 …. In words: other fluorescence titration; intrinsic tryptophan fluorescence (excitation 295 nm, followed at 340 nm); SH3_(1)–SH3_(2) constant at 5 µM, PRR fragments 1.8–100 µM; PBS, 0.5 mM TCEP, 0.05% TWEEN 20; 1:1 binding model.
Assay [4] has the same target. The description is as above. This is another data set of the same source.
The target in assay [5] is T3, Tks4 PX–SH3_(2) fragment (residues 1–279) (human, UniProt A1X283 1-279).
T3 construct: human Tks4 (SH3PXD2B), residues 1-279: PX, SH3_(1) and SH3_(2) domains; The modified pET vector has a TEV site after the His-tag; source: E. coli Rosetta pLysS, purified
T3 sequence (looked up): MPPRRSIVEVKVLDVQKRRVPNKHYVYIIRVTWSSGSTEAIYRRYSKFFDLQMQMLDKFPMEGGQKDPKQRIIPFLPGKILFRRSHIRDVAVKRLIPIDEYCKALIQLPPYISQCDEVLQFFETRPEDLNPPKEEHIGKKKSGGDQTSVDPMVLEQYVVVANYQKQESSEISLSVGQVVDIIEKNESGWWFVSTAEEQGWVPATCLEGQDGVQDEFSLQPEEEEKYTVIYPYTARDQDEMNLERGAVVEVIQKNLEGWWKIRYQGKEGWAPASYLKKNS
Nature of the assay: ITC; PX–SH3_(2) 20 µM in the cell, PRR–SH3_(3) 250 µM in the syringe; 25 °C; PBS with 0.5 mM TCEP; one set of independent binding sites model. (Isothermal titration calorimetry measures the heat released or taken up as one component is titrated into another.)

Assay [6] concerns the target T3, Tks4 PX–SH3_(2) fragment (residues …). In words: MST; NT-647-labelled PRR–SH3_(3) constant at 20 nM, titrated with PX–SH3_(2) (16-step 1:2 dilutions from 40 µM); PBS, 0.5 mM TCEP, 0.05% TWEEN 20; room temperature; 1:1 Kd fit.

B1: Tks4 SH3_(3) domain (residues 371–426) (domain or fragment, human, UniProt A1X283 371-426, looked up)
chain: EEYYTIAEFQTTIPDGISFQAGLKVEVIEKNLSGWWYIQIEDKEGWAPATFIDKYK
modifications: also: NT-647 amine-reactive dye label, site not given here (MST only)
notes: human Tks4 (SH3PXD2B), residues 371-426: third SH3 domain; The vector has a TEV site after the His-tag; also called third SH3 domain; source: E. coli Rosetta pLysS, purified
The term Kd denotes the constant that tells how readily two partners part at equilibrium. Low values mean a tighter complex, high ones a looser complex. For B1, the Kd in assay [1] is above 50 µM.

B2: Tks4 PRRL fragment (residues 333–370) (domain or fragment, human)
chain: GSHMGDAKQRSPKMRQRPPPRRDMTIPRGLNLPKPPIPPQVE
notes: four N-terminal residues that are cloning artifacts; human Tks4 (SH3PXD2B), residues 333-370: proline-rich region with the PTAM (PPPRR) and the PKPPIPP motif; also called wild type PRRL; not shown: His-tag, N-terminal, cleaved
In the case of B2, the Kd in assay [2] was found to be 15 µM; in assay [3], 24 µM; in assay [4], 11 µM.

B3: Tks4 PRRL^T353E phosphomimetic mutant fragment (domain or fragment, human)
chain: B2 chain with T25E
notes: four N-terminal residues that are cloning artifacts; human Tks4 (SH3PXD2B), residues 333-370 with the phosphomimetic Thr-to-Glu mutation T353E; not shown: His-tag, N-terminal, cleaved
In turn, B3 displayed an equilibrium dissociation constant (Kd) in assay [4] of 10 µM.

B4: Tks4 PRRS peptide (peptide)
peptide: KMRQRPPPRRDMTIPRG
notes: human Tks4 (SH3PXD2B), truncated version of PRRL containing only the PTAM; source: synthetic peptide (Fmoc/tBu SPPS, RP-HPLC purified)
In turn, B4 showed a Kd in assay [4] of 12 µM.

B5: Tks4 PRR–SH3_(3) fragment (residues 333–426) (domain or fragment, human, UniProt A1X283 333-426, looked up)
chain: GDAKQRSPKMRQRPPPRRDMTIPRGLNLPKPPIPPQVEEEYYTIAEFQTTIPDGISFQAGLKVEVIEKNLSGWWYIQIEDKEGWAPATFIDKYK
modifications: NT-647 amine-reactive dye (in the MST only)
notes: human Tks4 (SH3PXD2B), residues 333-426: proline-rich region and SH3_(3) domain; The vector has a TEV site after the His-tag; Labelled in the MST, unlabelled in the ITC; source: E. coli Rosetta pLysS, purified
With B5, the Kd is 0.3 ± 0.2 µM in assay [5] and around 0.24 µM in assay [6].
